Key:
[1] = target: N130-V5 recombinant protein (NAC1 BTB domain only) (UniProt Q96RE7); experiment: pull-down
[2] = target: NAC1-V5 recombinant protein (UniProt Q96RE7); experiment: pull-down

Q: With “purified recombinant actin (Cytoskeleton Inc.) (from UniProt P60709 1-375) (natural protein)” as the substance, how does the Kd [1] read?
A: Its Kd is 0.52 µM.

Q: What about the Kd [2] of the same substance?
A: The Kd was 0.78 µM.
